Reference: patent US20200148774A1 (Genentech, published 2020)
One block for each binder: values may come before it.

Key:
[1] = biological target: T1, human CLL-1 on cells (endogenous on HL-60, EOL-1 and other AML cell lines and CD14+ monocytes); recombinant on … (human, UniProt Q5QGZ9 1-265); assay: Scatchard (125I-antibody competition), HL-60 cells
T1 construct: also called 293AD/huCLL-1; tumor-derived CLL-1
T1 sequence: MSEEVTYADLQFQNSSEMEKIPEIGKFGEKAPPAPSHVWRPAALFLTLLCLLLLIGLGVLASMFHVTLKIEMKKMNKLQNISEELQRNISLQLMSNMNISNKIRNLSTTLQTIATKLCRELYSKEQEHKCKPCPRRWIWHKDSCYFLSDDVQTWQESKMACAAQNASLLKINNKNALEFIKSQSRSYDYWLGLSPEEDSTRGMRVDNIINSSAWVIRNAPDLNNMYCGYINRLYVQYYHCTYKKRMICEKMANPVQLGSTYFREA
Protocol: (§1) Anti-CLL-1 antibodies were [I¹²⁵] labeled using the indirect lodogen method. […] Competition assay mixtures of 50 μL volume containing a fixed concentration of [1¹²⁵] labeled antibody and decreasing concentrations of serially diluted, unlabeled antibody were placed into 96-well plates. HEK293AD cells stably expressing recombinant hu or cynoCLL-1 or HL-60 tumor cells expressing endogenous CLL-1 were cultured in growth media at 37° C. in 5% CO₂. Cells were detached from the flask using Sigma Cell Dissociation Solution and were washed with binding buffer, which consisted of Dulbecco's Modified Eagle Medium (DMEM) with 1% bovine serum albumin (BSA), […] and 0.1% sodium azide. The washed cells were added to the 96 well plates at a density of 100,000 cells in 0.2 mL of binding buffer. […] The final concentration of the unlabeled antibody in the competition assay ranged from 1000 nM through ten 2-fold dilution steps to a 0 nM buffer-only assay. Competition assays were carried out in triplicate. Competition assays were incubated for 2 hours at room temperature. […] The filters were counted on a Wallac Wizard 1470 gamma counter (PerkinElmer Life and Analytical Sciences Inc.; Wellesley, Mass.). The binding data was evaluated using NewLigand software (Genentech), which uses the fitting algorithm of Munson and Robard to determine the binding affinity of the antibody (Munson and Robard 1980).

[2] = biological target: T1, human CLL-1 on cells (endogenous on …); assay: Scatchard (125I-antibody competition), 293AD/huCLL-1 cells
Protocol: as §1

[3] = biological target: T2, cynomolgus CLL-1 on cells (recombinant on HEK293AD cells) (cynomolgus monkey); assay: Scatchard (125I-antibody competition), 293AD/cynoCLL-1 cells
T2 construct: also called 293AD/cynoCLL-1; 293AD/cynoCLL1
T2 chain: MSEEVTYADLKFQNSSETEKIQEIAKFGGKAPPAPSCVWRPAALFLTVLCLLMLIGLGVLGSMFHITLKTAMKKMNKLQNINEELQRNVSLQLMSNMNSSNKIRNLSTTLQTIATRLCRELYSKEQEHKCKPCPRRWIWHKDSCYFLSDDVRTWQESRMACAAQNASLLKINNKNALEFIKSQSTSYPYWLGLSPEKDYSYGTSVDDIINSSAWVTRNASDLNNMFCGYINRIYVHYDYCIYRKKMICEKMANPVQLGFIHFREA
Protocol: as §1

[4] = biological target: T3, recombinant human CLL-1 extracellular domain (ECD, amino acids 65-265) fused to an N-terminal Flag (human, UniProt Q5QGZ9 65-265); assay: SPR (Biacore T200), IgG captured by anti-human Fc, human CLL-1 as analyte
T3 construct: The construct and the K244Q SNP are stated for the immunogen; they are not written as a piece; also called huCLL-1-Flag; huCLL-1
T3 chain: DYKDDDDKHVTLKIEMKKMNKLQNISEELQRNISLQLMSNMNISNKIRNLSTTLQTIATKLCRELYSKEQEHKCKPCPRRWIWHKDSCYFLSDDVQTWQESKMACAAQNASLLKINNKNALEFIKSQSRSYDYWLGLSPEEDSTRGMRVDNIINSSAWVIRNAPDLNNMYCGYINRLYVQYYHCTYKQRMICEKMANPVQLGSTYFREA
Protocol: The binding affinity of the antibodies in this section was determined by BIAcore™ T200 Format. Briefly, BIAcore™ research grade CM5 chips were activated with 1-ethyl-3-(3-dimethylaminopropyl) carbodiimide (EDC) and N-hydroxysuccinimide (NHS) reagents according to the supplier's instructions. Goat anti-human Fc IgGs were coupled to the chips to achieve approximately 10,000 response units (RU) in each flow cell. Unreacted coupling groups were blocked with 1M ethanolamine. For kinetics measurements, antibodies were captured to achieve approximately 300 RU. Three-fold serial dilutions of human CLL-1 was injected in HBS-P buffer (0.01M HEPES pH7.4, 0.15M NaCl, 0.005% surfactant P20) at 25° C. with a flow rate of 30 μl/min. Association rates (kon) and dissociation rates (koff) were calculated using a 1:1 Langmuir binding model (BIAcore™ T200 Evaluation Software version 2.0). The equilibrium dissociation constant (Kd) was calculated as the ratio koff/kon.

[5] = biological target: T3, recombinant human CLL-1 extracellular …; assay: SPR (Biacore), chimeric IgG captured by anti-human IgG, CLL-1 as analyte
Protocol: (§2) The chimeric anti-CLL-1 human IgG were captured by mouse anti-human IgG coated on the CM5 sensor chip. […] Association rates (kon) and dissociation rates (koff) were calculated using a simple one-to-one Langmuir binding model. The equilibrium dissociation constant (KD) was calculated as the ratio koff/kon.

[6] = biological target: T4, recombinant cynomolgus CLL-1 extracellular domain (ECD, amino acids 65-265) fused to an N-terminal Flag (cynomolgus monkey); assay: as above
T4 construct: Construct stated for the immunogen; also called CynoCLL-1 Flag; cynoCLL-1
T4 chain: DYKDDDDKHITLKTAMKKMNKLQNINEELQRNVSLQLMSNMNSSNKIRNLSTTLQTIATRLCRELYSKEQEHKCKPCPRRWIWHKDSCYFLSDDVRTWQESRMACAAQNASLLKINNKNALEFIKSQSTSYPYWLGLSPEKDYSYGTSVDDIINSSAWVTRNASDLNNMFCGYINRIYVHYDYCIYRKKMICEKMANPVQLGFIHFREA
Protocol: as §2

hCD3ε [7] = biological target: T5, hCD3ε (human, UniProt P07766 23-126); assay: SPR (Biacore); target printed only as hCD3; format not stated, not the Fab measurement
T5 construct: Also used for the value printed only as 'hCD3 (0.05 nM'); also called human CD3ε polypeptide
T5 sequence (P07766 23-126): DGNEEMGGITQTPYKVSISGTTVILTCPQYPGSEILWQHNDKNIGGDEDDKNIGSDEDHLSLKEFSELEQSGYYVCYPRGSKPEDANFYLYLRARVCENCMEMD

hCD3ε [8] = biological target: T5, hCD3ε; assay: SPR (Biacore), Fab
hCD3ε [9] = biological target: T5, hCD3ε; assay: SPR (Biacore), Fab; Fab

B2: 38E4v11 (antibody, V domains shown)
VH: EVQLVQSGAEVKKPGASVKVSCKASGFTFTSYYIHWVRQAPGQGLEWIGWIYPENDNTKYNEKFKDRVTITADTSTSTAYLELSSLRSEDTAVYYCARDGYSRYYFDYWGQGTLVTVSS
VL: DIVMTQSPDSLAVSLGERATINCKSSQSLLNSRTRKNYLAWYQQKPGQSPKLLIYWTSTRKSGVPDRFSGSGSGTDFTLTISSLQAEDVAVYYCTQSFILRTFGQGTKVEIK
notes: also called h38E4v11
Kd (hCD3ε [7]): 0.05 nM

B3: 38E4v11 Fab (Fab, V domains shown)
VH: B2 VH
VL: B2 VL
notes: Fab; also called 38E4v11 (Fab Biacore measurements)
Kd (hCD3ε [8]): 0.032 nM | koff (hCD3ε [8]): 0.0016 s⁻¹ | kon (hCD3ε [9]): 5e+07 M⁻¹ s⁻¹

Continued, values first:

Kd [1]: 0.45 nM | Kd [2]: 0.59 nM | Kd [3]: 1.2 nM | Kd [4]: 8.62 nM | Kd [5]: 9.7 nM | koff [5]: 0.0024 s⁻¹ | kon [5]: 250000 M⁻¹ s⁻¹ | Kd [6]: 7.1 nM | koff [6]: 0.0012 s⁻¹ | kon [6]: 160000 M⁻¹ s⁻¹
B1: ch21C9 (antibody, V domains shown)
VH: EVQLQQSGPELVKPGASVKMSCKASGYTFTDYYLDWVKQSHGESFEWIGRVNPYNGGTIYNQKFKGKATLTVDKSSSTAYMDLNSLTSEDSAVYYCARDHYRYDPLLDYWGQGTTLTVSS
VL: DIQMTQSHKFMSTSVGDRVSITCKASQDVSTAVAWFQQKPGQSPKLLIYSPSYRYTGVPDRFTGSGSGTDFTFTISSVQAEDLAVYYCQQLYSTPYTFGGGTKLEIK
notes: chimeric version of m21C9, human IgG; also called chimeric 21C9; Chimeric 21C9

Kd [1]: 0.65 nM | Kd [2]: 0.8 nM | Kd [3]: 1 nM | Kd [4]: 0.959 nM | Kd [5]: 0.9 nM | koff [5]: 0.00044 s⁻¹ | kon [5]: 460000 M⁻¹ s⁻¹ | Kd [6]: 1.1 nM | koff [6]: 0.00046 s⁻¹ | kon [6]: 400000 M⁻¹ s⁻¹
B4: ch6E7 (antibody, V domains shown)
VH: QVQLQQSGPELVKPGASVKISCKASGYSFTDYYMHWVKQSHIKSLEWIGRINPYNGAAFYSQNFKDKASLTVDKSSSTAYMELHSLTSEDSAVYYCAIERGADLEGYAMDYWGQGTSVTVSS
VL: DIVLTQSPSSLIVSLGQRATISCRASQSVSTSSYNYMHWYQQKPGQPPKLLLKYASNLESGVPARFSGSGSGTDFTLNIHPVEEEDTATYYCQHSWEIPLTFGAGTKLEIK
notes: chimeric version of m6E7, human IgG; also called chimeric 6E7; Chimeric 6E7
